This note sets out measurements from US20240117038A1 (Ablynx, published 2024).

One assay addresses T1, human CX3CR1 T280M (human, UniProt P49238 1-355).
T1 construct: Transiently transfected in HEK293T cells (pcDNA3.1); also called huCX3CR1 variant T280M (Rs3732378)
T1 sequence: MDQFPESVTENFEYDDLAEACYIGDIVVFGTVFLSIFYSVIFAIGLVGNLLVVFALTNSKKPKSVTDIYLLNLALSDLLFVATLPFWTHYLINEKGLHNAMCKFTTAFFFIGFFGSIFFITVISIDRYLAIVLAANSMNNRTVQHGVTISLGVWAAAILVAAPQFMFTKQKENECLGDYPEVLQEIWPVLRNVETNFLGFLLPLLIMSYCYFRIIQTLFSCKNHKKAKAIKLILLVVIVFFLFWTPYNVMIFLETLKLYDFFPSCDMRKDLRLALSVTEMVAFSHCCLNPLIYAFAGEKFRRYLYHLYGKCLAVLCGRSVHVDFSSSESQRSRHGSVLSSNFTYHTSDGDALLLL
The experiment in a line: flow cytometry on transiently transfected HEK293T cells, human CX3CR1 T280M. As to the method: (§1) After washing, serial dilutions of multivalent ISVD construct (starting from 250 nM, 3-fold dilution, 11 points, diluted in assay buffer), were added and incubated for 4 hours at 4° C. Binding was performed in the presence of 30 uM HSA (Sigma-Aldrich, Cat. No. A8763). Plates were then washed 3 times and cells were incubated with an anti-VHH mouse antibody (3300-fold diluted in assay buffer) for 30 minutes at 4′° C. […] Plates were finally washed 3 times and cells were resuspended in PI (Miltenyi Biotec, Cat. No. 130-093-233, 1000-fold diluted in assay buffer). Cell suspensions were analyzed with iQue Screener PLUS (Intellicyt). EC50s were estimated by dose response modelling. Curves were fit using 4 parameter logistic regression in GraphPad (GraphPad Software Inc.). A purified anti-human CX3CR1 antibody [K0124E1] (BioLegend, Cat. No. 355701/355702) was used as positive control to detect CX3CR1 expression on the cell surface.
(§2) Two important SNPs are described in huCX3CR1, i.e. V2491 (Rs3732379) and T280M (Rs3732378), which might influence receptor activity and binding by the ISVD. […] Different combinations of these SNPs were introduced in human CX3CR1, and binding by 5 selected multivalent ISVD constructs was assessed with flow cytometry after transient transfection of the huCX3CR1 variants in HEK293T cells.
(§3) In short, the CX3CR1 constructs were cloned into pcDNA3.1 (ThermoFisher Scientific, Cat. No. V79020) and plasmid DNA was prepared from Escherichia coli TOP10 cells. HEK293T cells were seeded at a concentration of 1.5E06 cells per T75 flask and incubated overnight at 37° C. in DMEM medium (Gibco, Cat. No. 31966) supplemented with 10% FBS (Sigma. Cat. No. F7524). The medium was then replaced by Opti-MEM medium (Gibco, Cat. No. 31985). A mixture of 9 μg plasmid DNA, 27 μL Fugene 6 (Promega, Cat. No. E2691) in a final volume of 1 mL Opti-MEM was incubated for 15 minutes at room temperature and then added to the cells. After 3 hours incubation at 37° C., 10 mL of DMEM supplemented with 20% FBS was added, and incubation continued.
(Flow cytometry measures light scatter and fluorescence of single cells or particles in a stream.)

Another assay addresses T2, human CX3CR1 V249I/T280M (human, UniProt P49238 1-355).
T2 construct: Transiently transfected in HEK293T cells (pcDNA3.1); also called huCX3CR1 variant V249I and T280M
T2 chain: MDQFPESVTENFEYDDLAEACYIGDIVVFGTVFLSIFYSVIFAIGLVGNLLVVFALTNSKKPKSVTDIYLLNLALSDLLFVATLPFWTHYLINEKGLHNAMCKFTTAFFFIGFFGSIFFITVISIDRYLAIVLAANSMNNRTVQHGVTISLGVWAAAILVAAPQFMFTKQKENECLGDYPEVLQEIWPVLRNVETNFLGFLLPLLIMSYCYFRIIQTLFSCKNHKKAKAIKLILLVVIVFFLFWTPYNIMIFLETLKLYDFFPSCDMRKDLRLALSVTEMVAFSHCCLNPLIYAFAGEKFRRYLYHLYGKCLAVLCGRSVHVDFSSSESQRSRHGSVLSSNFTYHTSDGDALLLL
Nature of the assay: flow cytometry on transiently transfected HEK293T cells, human CX3CR1 V249I/T280M. The procedure:
as §1, §2, §3

In a further assay the target is T3, cynomolgus CX3CR1 (cynomolgus monkey (Macaca fascicularis), UniProt P49238 1-355 (human entry)).
T3 construct: Overexpressed on CHO K1 cells; also called cyno CX3CR1; cyCX3CR1
T3 chain: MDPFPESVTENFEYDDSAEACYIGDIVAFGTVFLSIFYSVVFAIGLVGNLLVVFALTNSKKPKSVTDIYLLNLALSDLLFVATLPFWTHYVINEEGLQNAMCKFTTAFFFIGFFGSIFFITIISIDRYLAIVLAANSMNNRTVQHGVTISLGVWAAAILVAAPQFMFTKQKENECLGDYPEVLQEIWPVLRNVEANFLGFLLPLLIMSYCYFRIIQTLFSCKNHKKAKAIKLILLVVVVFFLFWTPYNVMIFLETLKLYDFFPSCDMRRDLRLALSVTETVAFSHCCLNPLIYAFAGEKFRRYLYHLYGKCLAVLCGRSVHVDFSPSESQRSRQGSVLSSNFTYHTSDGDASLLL
Nature of the assay: competition flow cytometry vs soluble huCX3CL1-AF647 on CHO K1 cyCX3CR1 cells, 30 uM HSA.

In general, EC50 refers to the concentration needed to bring the measured effect to its halfway point. Broadly, the % inhibition is the relative decrease from the control value, in per cent. As usually defined, the IC50 is the concentration that inhibits the measured activity by half.

B1: A041600025 (VHH)
chain: DVQLVESGGGSVQPGGSLRLSCAASGSIFSSTAMAWYRQAPGKQRDLVAVISTVGITKYADSVKGRFTISRDNAKNTVYLQMNSLRPEDTALYYCTSDARRGWDTRYWGQGTLVTVSSGGGGSGGGSEVQLVESGGGVVQPGGSLRLSCAASGFTFRSFGMSWVRQAPGKGPEWVSSISGSGSDTLYADSVKGRFTISRDNSKNTLYLQMNSLRPEDTALYYCTIGGSLSRSSQGTLVTVSSGGGGSGGGSEVQLVESGGGSVQPGGSLRLSCAASGSIFSSTAMAWYRQAPGKQRDLVAVISTVGITKYADSVKGRFTISRDNAKNTVYLQMNSLRPEDTALYYCTSDARRGWDTRYWGQGTLVTVSSA
notes: Trivalent ISVD construct (two anti-CX3CR1 ISVDs, one anti-albumin ISVD), C-terminal alanine included in the entry; also called 54A12_SO (E1D)-9GS-ALB23002-9GS-54A12_SO-A
For the molecule B1, the EC50 in the assay with human CX3CR1 T280M was 160 pM. Moreover, the EC50 with human CX3CR1 V249I/T280M worked out at 170 pM. In the assay with cynomolgus CX3CR1, the “% inhibition” value turned out to be 104% and the IC50 amounted to 1700 pM.

B2: A041600034 (VHH)
chain: DVQLVESGGGSVQPGGSLRLSCAASGSIFSSTAMAWYRQAPGKQRDLVAVISTVGITKYADSVKGRFTISRDNAKNTVYLQMNSLRPEDTALYYCTSDARRGWDTRYWGQGTLVTVSSGGGGSGGGSEVQLVESGGGVVQPGGSLRLSCAASGFTFRSFGMSWVRQAPGKGPEWVSSISGSGSDTLYADSVKGRFTISRDNSKNTLYLQMNSLRPEDTALYYCTIGGSLSRSSQGTLVTVSSGGGGSGGGSEVQLVESGGGSVQPGGSLRLSCAASGSIFSSTAMAWYRQAPGKRRDLVAAINTVGVTKYADSVKGRFTISRDNAKNTVYLQMNSLRPEDTALYYCTSDPRRGWDTRYWGQGTLVTVSSA
notes: Trivalent ISVD construct; also called 54A12_SO (E1D)-9GS-ALB23002-9GS-66B02_SO-A
B2: the EC50 with human CX3CR1 T280M came to 74 pM. Also, in the assay with human CX3CR1 V249I/T280M, the EC50 is 90 pM. In addition, in the assay with cynomolgus CX3CR1, the “% inhibition” value turned out to be 104% and the IC50 was found to be 1800 pM.

B3: A041600085 (VHH)
chain: DVQLVESGGGLVQPGGSLRLSCAASGSIFSSTAMAWYRQAPGKRRDLVAAISTVGVTKYADSVKGRFTISRDNSKNTVYLQMNSLRPEDTAVYYCTSDPRRGWDTRYWGQGTLVTVSSGGGGSGGGSEVQLVESGGGVVQPGGSLRLSCAASGFTFRSFGMSWVRQAPGKGPEWVSSISGSGSDTLYADSVKGRFTISRDNSKNTLYLQMNSLRPEDTALYYCTIGGSLSRSSQGTLVTVSSGGGGSGGGSEVQLVESGGGLVQPGGSLRLSCAASGSIFSSTAMAWYRQAPGKRRDLVAAISTVGVTKYADSVKGRFTISRDNSKNTVYLQMNSLRPEDTAVYYCTSDPRRGWDTRYWGQGTLVTVSSA
notes: also called 307-9GS-ALB23002-9GS-307 (D1E)-A
On to B3, for which the EC50 in the assay with human CX3CR1 T280M is 170 pM. For the same molecule, in the assay with cynomolgus CX3CR1, the “% inhibition” value amounted to 102% and the half-inhibitory concentration (IC50) was 1100 pM.

B4: A041600035 (VHH)
chain: DVQLVESGGGSVQPGGSLRLSCAASGSIFSSTAMAWYRQAPGKQRDLVAVISTVGITKYADSVKGRFTISRDNAKNTVYLQMNSLRPEDTALYYCTSDARRGWDTRYWGQGTLVTVSSGGGGSGGGSEVQLVESGGGSVQPGGSLRLSCAASGSIFSSTAMAWYRQAPGKQRDLVAVISTVGITKYADSVKGRFTISRDNAKNTVYLQMNSLRPEDTALYYCTSDARRGWDTRYWGQGTLVTVSSGGGGSGGGSEVQLVESGGGVVQPGGSLRLSCAASGFTFRSFGMSWVRQAPGKGPEWVSSISGSGSDTLYADSVKGRFTISRDNSKNTLYLQMNSLRPEDTALYYCTIGGSLSRSSQGTLVTVSSA
notes: Trivalent ISVD construct (two anti-CX3CR1 ISVDs, one anti-albumin ISVD), C-terminal alanine included in the entry; also called 54A12_SO (E1D)-9GS-54A12_SO-9GS-ALB23002-A
Regarding B4, the EC50 in the assay with human CX3CR1 T280M came out at 200 pM. Also, in the assay with human CX3CR1 V249I/T280M, the EC50 came to 270 pM. In addition, in the assay with cynomolgus CX3CR1, the “% inhibition” value came out at 105% and the IC50 amounted to 1100 pM.

B5: A041600041 (VHH)
chain: DVQLVESGGGSVQPGGSLRLSCAASGSIFSSTAMAWYRQAPGKQRDLVAVISTVGITKYADSVKGRFTISRDNAKNTVYLQMNSLRPEDTALYYCTSDARRGWDTRYWGQGTLVTVSSGGGGSGGGSEVQLVESGGGSVQPGGSLRLSCAASGSIFSSTAMAWYRQAPGKRRDLVAAINTVGVTKYADSVKGRFTISRDNAKNTVYLQMNSLRPEDTALYYCTSDPRRGWDTRYWGQGTLVTVSSGGGGSGGGSEVQLVESGGGVVQPGGSLRLSCAASGFTFRSFGMSWVRQAPGKGPEWVSSISGSGSDTLYADSVKGRFTISRDNSKNTLYLQMNSLRPEDTALYYCTIGGSLSRSSQGTLVTVSSA
notes: Trivalent ISVD construct (two anti-CX3CR1 ISVDs, one anti-albumin ISVD), C-terminal alanine included in the entry; also called 54A12_SO (E1D)-9GS-66B02_SO-9GS-ALB23002-A
Turning to B5, the EC50 with human CX3CR1 T280M came out at 220 pM. In the assay with cynomolgus CX3CR1, the “% inhibition” value came to 107% and the IC50 was 1800 pM.
